Experimental findings from US20220387578A1 are described below.

Where a chain is given by its changes, count along the chain named. In names and notes the source's numbering stands. A value given as a limit tells only on which side of the number the result lay.

In experiment [1] the target is H9 HA A/Hong Kong/1073/99, recombinant (influenza A virus).
Experiment [2] deals with H14 HA A/mallard duck/Astrakhan/263/1982, recombinant (influenza A virus).
Experiment [3] concerns the target H12 HA A/duck/Alberta/60/1976, recombinant (influenza A virus).
Experiment [4] deals with H7 HA A/Shanghai/2/2013 (H7N9), recombinant uncleaved trimer (influenza A virus).
Experiment [5] addresses H15 HA A/shearwater/Western Australia/2576/1979, recombinant (influenza A virus).
The target in experiment [6] is H5 HA A/Indonesia/05/2005 (H5N1), recombinant (influenza A virus).
For experiment [7], the target named is H2 HA A/Singapore/1/1957, recombinant soluble trimer (influenza A virus).
Experiment [8] concerns the target H3 HA A/Hong Kong/1/1968 (H3N2), recombinant soluble trimer (influenza A virus), Q91MA7. The following applies: remark: other sources report otherwise.

B1: rFluA-20 heavy chain mutant Y34A (antibody, V domains shown)
VH: QVQLQESGPGLVKPSETLSLTCSVSGVSVTSDIAYWTWIRQPPGKGLEWIGYIFYNGDTNYNPSLKSRVTMSIDTSKNEFSLRLTSVTAADTAVYFCARGTEDLGYCSSGSCPNHWGQGTLVTVSS
VL: DIQMTQSPSSLSASIGDRVTITCRPSQNIRSFLNWFQHKPGKAPKLLIYAASNLQSGVPSRFSGSGSGTEFTLTIRSLQPEDFATYYCQQSYNTPPTFGQGTKVEIK
Take B1: the EC50 in experiment [1] came out at 0.21 µg/mL; in experiment [2] it was 0.54 µg/mL; in experiment [3], 0.05 µg/mL; in experiment [4] it was 0.44 µg/mL; in experiment [5], 0.1 µg/mL; in experiment [7], 0.11 µg/mL. The EC50 relative to wild type rFluA-20 in experiment [6] was above 100 fold.

B2: rFluA-20 light chain mutant Q55A (antibody, V domains shown)
VH: B1 VH with A34Y
VL: B1 VL with Q55A
Take B2: the EC50 in experiment [8] worked out at 0.08 µg/mL.

B3: rFluA-20 heavy chain mutant E97A (antibody, V domains shown)
VH: B1 VH with A34Y, E102A
VL: B1 VL
B3: the EC50 in experiment [1] amounted to 0.36 µg/mL; in experiment [2] it was 0.64 µg/mL; in experiment [3] it was 0.06 µg/mL; in experiment [4], 1 µg/mL; in experiment [5], 0.12 µg/mL; in experiment [7], 0.13 µg/mL. Also, the EC50 relative to wild type rFluA-20 in experiment [6] is above 100 fold.

B4: rFluA-20 heavy chain mutant Y100aA (antibody, V domains shown)
VH: B1 VH with A34Y, Y106A
VL: B1 VL
B4: the EC50 relative to wild type rFluA-20 in experiment [1], in experiment [2], in experiment [3], in experiment [4], in experiment [5] and in experiment [6] was above 100 fold each time. Also, in experiment [7], the EC50 relative to wild type rFluA-20 was above 100 fold.

B5: rFluA-20 heavy chain mutant T96A (antibody, V domains shown)
VH: B1 VH with A34Y, T101A
VL: B1 VL
With B5, the EC50 turned out to be 0.1 µg/mL in experiment [1]; 0.23 µg/mL in experiment [2]; 0.04 µg/mL in experiment [3]; 0.37 µg/mL in experiment [4]; 0.07 µg/mL in experiment [5]; 0.11 µg/mL in experiment [6]. Further, the EC50 in experiment [7] stood at 0.07 µg/mL.

As usually defined, the EC50 is the midpoint of the concentration-response curve.
